The nature of the data set: soluble on expression in E. coli; label from the status in PepcDB or PDB records.
As to “MGLNVREGEIMAKNRSRRLRKKMHIDEFQELGFSVAWRFPEGTSEEQIDKIVDDFINEVIEPNKLAFDGSGYLAWEGLICMQEIGKCTEEHQAIVRKWLEECKLDEVRTSELFDVWWD”, the “soluble on expression in E. coli” value was “not soluble”.

Turning to “MGLSCALTSGLSLRCFSNTPARLSCGAGILHCSKLCLSGFGDPAQGRLHNANHGAVRLHGTVTAFKHRRGYGFVLAEGVAASAPPLKHTYVALDTHAAAARNNGVPPAREEACNELHKSFFFTRSALMGGFYVTEGERVSFAVVAVPPGKGINRRVAGDSPSTRKDDGDHAALGGAETAEFLLGSPEGELEEDSSAATSDTQSQLHRIAVSLRYYDAKTGKETPISPLTLYGKIVEWDAAAGVGVIAELDTRRQYHEDAPRFPFSLESVDLALGTELRSGRYVRFCLEPATHAQGGGGEDTAAAVTPTSGAEAAADVDEDVELVAQRVIIDSSMERRKGVFGRPLVLADAAPGTMTSESRFSGVVREVKADHFGFIQDDLSGESIFFHLSNASSRVKAGDRVTYLLREVEYGKHTGKKACFDVLIDQTVTSRARDAASDCGASAGAGNAGGHHRKHAAERRSKTARDEDDLDFELL”, the “soluble on expression in E. coli” value is given as “not soluble”.

Turning to “MGLTTMGLTTMGLTTKGLTTMGLTTKGLTTKGLTTMGLTTKGFTTKGLTTMGVTTKGLTTMGLTTKGLTTKGLTTKGFTTKGLTTMGLATMGLTTKGLTTMGLTTMGLTTKGLTTKGLTTKGLTTKGLTTKGLTTMGLTTKGFTTKGLTTMGLTTMGLATMGLTTKGLTTMGLTTKGFITKGLTTMGLATMGLTTMGLTTKGLTTKGLTTKGLTTMGLTTKGFITKGLTTMGLATMGLTTMGLTTKGLTTMGLTTMGLTTKGLTTKGLTTKGLTTKGLTTKGLTTMGLTTKGFTTKGLTTMGLATMGLATMGLTTMGLTTKGLTTKGLTTKGLTTKGLTTMGLTTKGFTTKGLTTMGLTTMGLTTKGLTTKGLTTKGLTTKGLTTMGLTTKGFTTKGLTTMGLATMGLTTKGLTTMGLTTKGFITKGLTTMGLATMGLTTMGLTTKGLTTKGLTTKGLTTMGLTTMGLTTMGLTTMGLTTMGLTTMGLTTMGLTTKGLTSQGVMDQAGVNRVEGEPINRLRTCEGKGNGRGDMQGVGNLGKALRGREDSLIVSSETRGFPRMGLWPGFPPIEYQGQVQSLE”, the “soluble on expression in E. coli” value is listed as “not soluble”.

Regarding “MGMKYLIKLKYIKPAQLAVNREQKLAEFYPIFEDGTLGRVEAKARVFLPEYSDFAKGLGFEVKKRRMITEDDYAYLRAMVYGVVMGVLRNPGDWRRLEERVLEMEPIELRYWASKFRNAYWKYKNMRKLMFLARRFMEVEMILEHHHHHH”, the “soluble on expression in E. coli” value is listed as “soluble”.

“MGNAKSTDSNPKKSVRRKSATTPSTSSSSRPSISSQGNRKPILSVNQRQIIKGCMDNSKDDLGERIFRRALERRDDFKQFIDNLSKGQRYENSQYLKQFLLGIVENIMDIDEINRISEEFGCNHVQFRANGFKPDFFACTADAVTTECTFLDQAAHPTSETAAAWSLLTSHVFSAVRDGYYAELRRQRKSSNAFRARVSVDVVSTGTDDGTSLSSATRRSNSPQEEIAESFDHHTVENNCVESSGNFLAPPTVY”: the “soluble on expression in E. coli” value was “not soluble”.

As to “MGNCLKSPTSDDISLLHESQSDRASFGEGTEPDQEPPPPYQEQVPVPVYHPTPSQTRLATQLTEEEQIRIAQRIGLIQHLPKGVYDPGRDGSEKKIRECVICMMDFVYGDPIRFLPCMHIYHLDCIDDWLMRSFTCPSCMEPVDAALLSSYETN”, the “soluble on expression in E. coli” value is recorded as “soluble”.

Turning to “MGNDKRVRKPEWLKISIGANERYTETKRIVESHCLHTICSSGRCPNMGECWGKGTATFMIAGDICTRSCKFCNTQTGRPLPLDPDEPTHVAESIALMKLSHAVITSVDRDDLPDLGAAHWAQTIREIKRLNPETTTEVLIPDFQGRKELVDQVIKACPEIISHNMETVKRISPQVRSAANYHTSLEVIRQIAESGITAKSGIMVGLGETPAEVEELMDDLISVGCKILTIGQYLQPTHKHFPVAAYITPEQFAVYKETGLKKGFEQVESAPLVRSSYHAEKHIRFNNK”, the “soluble on expression in E. coli” value is “not soluble”.

“MGNEEEKMNADIFSYEGEGIQCVYDNKNWVMCIKNWKPNNDIENIRYLEVHHATDEQFVLLKGKAVLLAAVKADGACRIDVIPMEPYKVYNIPQGIWFNTITQKDTKLVYVQDAATTAENSEYCDMTQEELNEVKEKASACLD”: the “soluble on expression in E. coli” value is given as “not soluble”.

Take “MGNFHATTIFAVHHNGECAMAGDGQVTMGNAVVMKHTARKVRKLFQGKVLAGFAGSVADAFTLFEMFEGKLEEYNGNLQRAAVEMAKQWRGDKMLRQLEAMLIVMDKTTMLLVSGTGEVIEPDDGILAIGSGGNYALSAGRALKQYASEHLTAKQIAKASLEIAGDICVYTNHNIIVEEL”: the “soluble on expression in E. coli” value is given as “not soluble”.

In the case of “MGNIMSASFAPECTDLKTKYDSCFNEWYSEKFLKGKSVENECSKQWYAYTTCVNAALVKQGIKPALDEAREEAPFENGGKLKEVDK”, the “soluble on expression in E. coli” value was “soluble”.

For the sequence “MGNKRVLITGATGFIGGYLVDEALRRQYEVWAAVRPHSDRSRLTDSRIRFVEIDYRDPSDIARLADKIAPEGESAWHLVIHNAGITKARDTSLFREINAEQTKRFLIGLQGAKHCPERFVLMSSMGSYGAPPDDCQPLSSSSVPKPTTAYGESKLLAEQYVQTFVTIPYTIIQPTGVYGPHDQDYLMAIRSVDKGFDFSTGNTPQTLTFIYAEDLASAVFIAAEHPDAAGQKYIVSDGKEYTDIEFGRMIQHLLDRKNVCHLRIPLPLVKATCYIGQKWADISGTLTPLNLDKYAIIAQRNWRCDSSPIRAIGFSPRYNLEQGLAETIRWARTTGQIRR”, the “soluble on expression in E. coli” value was “not soluble”.

On to “MGNWLLPEGLADVLPAEARRIEELRRELLDLYRTYGFELVAPPLVEYIDSLLSSTGSDLNLRTCKLVDQLSGRTLGVRADMTSQVTRIDAHLLNRAGVTRLCYCGSVLHARPADLLSSRELLQIGAEIYGHAGFEADLEIIQLVMDTLATAGVRNARLDLCHSGVMRAIFDADPQASRHAGDLCTLLREKDVPGLAELASRVDGLGEDTVRALQALATLYGGPEIIARARRELPAVPGMAQALDALQALVDAMPGVTLSVDLADVGGYGYHSGVTFAVYGEDWHDALVRGGRYDDVSRAFGRARPATGFSLDLRKLAAGLTPAEPARAVRAPWGQDPALTDAVRRLRRSGEIVVQVLPGHEQGLDEFVCDRELALQDGAWTVRTL”, for which the “soluble on expression in E. coli” value is on record as “not soluble”.

On to “MGNYFPYAFEDKRYHTWNYHLKNKFGQKIFKVALDGGFDCPNRDGTVAHGGCTFCSAAGSGDFAGNRAEPIEVQFKKIKERMHEKWSEGQYIAYFQAFTNTHAPVEVLKEKYEPVLKEDGVVGLSIATRPDCLPDDVVEYLAELNQRTYLWVELGLQTVHQSTSDLINRAHDMQTYYDGVTKLRKHNINVCTHIINGLPGENYDMMMETAKEVAQMDVQGIKIHLLHLLKGTPMVKQYEKGMLEFMSQQDYTNLVCDQLEVLPPEMIVHRITGDGPIDLMVGPMWSVNKWEVLNEIDNELARRNSYQGKMNKQSIQS”, for which the “soluble on expression in E. coli” value is listed as “not soluble”.

With “MGNYLLRKLSCLGENQKKPKKGNPDEERKRQEMTTFERKLQDQDKKSQEVSSTSNQENENGSGSEEVCYTVINHIPHQRSSLSSNDDGYENIDSLTRKVRQFRERSETEYALLRTSVSRPCSCTHEHDYEVVFPH”, the “soluble on expression in E. coli” value was “soluble”.

On to “MGPVFVVGQIDEMVPHPDSDHLNICQVNIGDKKVQIVAGAPNASPGLKTIVALPGAMMPSGALIFPGKLRGEDSYGMMCSPRELALPNAPQKRGIIELDDSAVVGEALEHHHHHH”, for which the “soluble on expression in E. coli” value is listed as “not soluble”.

As for “MGPVPIKLALVIPNYNHSAAISQALSELAALNLPCYLIDDGSNDETRYLLQSLAEQHDWVTLLQHPYNRGKGAAVMTGLRSAYRDGFTHALQVDADGQHNLSDIPAMLAKAQAKPDALISGKPEYDKSVPKGRLYGRYLTHFWVWVETLSFDIQDSMCGFRVYPLAATERLFSKQALTERMDFDIEILVKLYWQGVEILFHPTKVIYPENGVSHFQCVADNVRISKLHTRLFFGMLKRLPQLLRRKQAAKSTSSAHTATHWSAMKERGSYWGIKLLVESYRFGGHWLCRAIMYPVICYFFLTGKVSREASRDFLRRVQHLEPQHPQLNQPVGWRDSLNHFIAFGNAALDRIDAWCDRIQLSQVDFPDRQVLADQLESGKGAVLLVSHLGNLELCRAISIHQRKVKVNVMVLTSHAENFNNVLKQLNPNSSLNLIQVTELNPATSMLLQQKIEDGELVVIAGDRTSSHAQGRVVYAPFMGQDAAFPQGPFILAGLLDCPVYLMFCLREQGRYRVHLERFAETLKGPRAGRMERLQQAVYRYSERLEHYARREPLQWFNFFDFWRDDNQVNRATSAHKTTAALPEQERTTDRTEHLLEHHHHHH”, the “soluble on expression in E. coli” value is “soluble”.

As for “MGQGQSVILSFEDGARTVELARESVEAFVQNGQREQPGSMRDAFYNRTSAFVRLESTRGRGRLRGCAGAHGSIHELGNHDQQLGHAIVEAAIEAASEASCGSEVEDAELPNIRVSVCTVSNLVLTDDPIEDIELGVHGVAIDGDGQHGWMYPTLPVENDWSVFEYLDRTCRKANLPDGAWQDEDVMVTLFEGQVFRETGDEDDPVEELTALEHHHHHH”, the “soluble on expression in E. coli” value is “not soluble”.

“MGQRQAKQHMQAGVKLYHQRHYAQAINKWRQSLNRLNNAEDRFITLGYLAQALCDQGEYEGMLSYALSQMQLATDQNDSAMKCEAFLNLAKAYERLADFTKALQYGKASLEHPSMDPRTPGYAHLTIALAHLGMSQFQQCLESFESAMNVANETSDRLLELQICVGLGSLFTLLRDITKALIFLRNALAIVQSVTVDDVHAKYRCLILYHLSVALRMKGSLVDAKEACDEASQLAVEMGNRAIHARCMCSLADIYRELGESEAKETITKSWARYEDAYRVMRGANDKMGEVLVLSSMAKSASESRSHYTGQCECQAIQLNKKCIEIANQIGCKHVVLKCHLRLAELYSQLNDDDSEETARRAASRLTQEMQLFCNFCGQRYGLKDESLQALRCSHIFHEKCLHTYLLQRTDQTCPKCRCRAVLSDNISIRSSIASTIDVQSPSTSFAPPGGVATPLVSAAAELGDITPQATLTRRSQQDKILRGAEKDIDRVDRSLARLKSQQSAAANACSAVAVPSPEVPSTTASCASEPILTASTTSQSHTHSNANHKPPPPPRKPCCSQAALPPSSIVALPPAMPLAEDGPLVITHTPTVTDV”: the “soluble on expression in E. coli” value is “not soluble”.

As to “MGRFQTLDYEIPESMQRSWQDIVNLLAQIADVPTTLIMRVHQNHIEVNTSSDTQGNPYKAGDKEDLGHGLYCEHVIETKSQLVVPDALADEKWSNNPDIKLGMLSYCGLPLFWPNGETFGTICMLDSKANEYSETYRQLLNTFKDSIEAQLAVVYQQYKLLR”, the “soluble on expression in E. coli” value is reported as “not soluble”.

With “MGRIFLDHIGGTRLFSCANCDTILTNRSELISTRFTGATGRAFLFNKVVNLQYSEVQDRVMLTGRHMVRDVSCKNCNSKLGWIYEFATEDSQRYKEGRVILERALVRESEGFEEHVPSDNS”, the “soluble on expression in E. coli” value was “soluble”.

Turning to “MGRKSKNSSQSHAHGPVPGVYPTTTGEVELRADSFLPHAFEVYVNGVPSSHIAQDPEQLEYEYMRWIAAIVDWFVTTHSDPKKLRVTHLGGGACTLARYVCHRYPNARNTVVELDATLATLVREWFDLPRSPQLKIRVGDAWEVAQTFVPSSRDVIIRDVFAGNQTPRRLTTVEFFQQCHQALSPGGLYVANCGDHRDLNVAKAEVQGLREVFDHVACIADPTMLKGRRYGNIILIATDTQLPTDQEQQVLTRLLLGGGVPAQFKGGNWTKNFSSSSTARHD”, the “soluble on expression in E. coli” value was “not soluble”.

For the origin of these results see the DeepSol protein solubility set.
